In the nanobody polyreactivity screen of Harvey et al. (2022):

Test: yeast display, Sf9 membrane polyspecificity reagent, FACS + sequencing; frameworks hold sequencing errors
Outline: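 Nanobodies came from a synthetic yeast display library in Saccharomyces cerevisiae BJ5465, induced with galactose for 36–48 hours and stained for 1 hour at 4 °C with 10% biotinylated, detergent-solubilized Sf9 membrane reagent. Cells were enriched on streptavidin microbeads and then FACS-sorted, with low and high (top ~1%) gates set on anti-HA fluorescence for expression and streptavidin fluorescence for reagent binding. Each polyreactivity label reflects the gate a clone came from. Genes were amplified by colony PCR, sequenced by MiSeq 2 × 250 and filtered by CDR length.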

Row | Sequence | polyreactivity (PSR sort gate)
1 | QVQLVESGGGLVQAGGSLRLSCAASGSIFIVYAMGWYRQAPGKERELVATISWSGGSTSYADSVKGRFTNSRDNAKNTVYLQMNSLKPEDTAFYYCNTLVRITEYDSWGQGTQVTVSS | low polyreactivity
2 | QVQLVESGGGLVQAGGSLRLSCAASGSIFIYNAMGWYRQAPGKERELVAAISSSGGSTYYADSVKGRFTISRDNAKNTVYLQMNSLKPEDTAVYYCAARTYYVRVLGGRPGMDYWGQGTQVTVSS | low polyreactivity
3 | QVQLVESGGGLVQAGGSLRLSCAASGSIFIYNAMGWYRQAPGKERELVAAISSSGGSTYYADSVKGRITISRDNAKNTVYLQMNSLKPEPTAVYYCAARTYYVRGLGGRPGMDYCGQGTQVTVSS | low polyreactivity
4 | QVQLVESGGGLVQAGGSLRLSCAASGSIFIYNAMGWYRQGPGKERELVAAISSSGGSTYYADSVKGRFTISRDNAKNTVYLQMNSLNPEDTAVYYCAARTYYVRGLGGRPGMDYWGPGTQVTVSS | low polyreactivity
5 | QVQLVESGGGLVQAGGSLRLSCAASGSIFIYYAMGWYRQAPGKERELVASISSSGSRTYYADSVKGRFTISRDNAKNTVYLQMNSLKPEETAVYYCAARYAIPRNYPQYNYWGQGTQVTVSS | high polyreactivity
6 | QVQLVESGGGLVQAGGSLRLSCAASGSIFIYYAMGWYRQAPGKERELVATISSDDRTNYTDSVKGRFTISRDNAKNTVYLQMNSLKPEDTAVYYCAADRYWAGRDGPEYDYWGQGTQVTVSS | low polyreactivity
7 | QVQLVESGGGLVQAGGSLRLSCAASGSIFIYYAMGWYRQAPGKQRELVAGINFNGGSTYYADSVKGRFTISRDNAMYTVYVQMNSLKPEDTAVYYCAADELWWTYWDFVTNWYQRDYWGQGTQVTVSS | low polyreactivity
8 | QVQLVESGGGLVQAGGSLRLSCAASGSIFIYYTMGWYRQAPGKEREFVASISWRGGRTYYADSVKGRFTISRDNAKNTVYLQMNSLKPEDTAVYYCAAKSRAYSYRMDYWGQGTQVTVSS | high polyreactivity
9 | QVQLVESGGGLVQAGGSLRLSCAASGSIFKGYALGWYRQAPGKERELVAAITYSGGGTYYADSVKGRFTISRDNAKNTVYLQMNSLKPEDTAVYYCNADRYYPDDLSDGVGTYDYWGQGTQVTVSS | low polyreactivity
10 | QVQLVESGGGLVQAGGSLRLSCAASGSIFKGYAMGWYRQAPGKERELVAAITGGGGSTYYADSVKGRFTISRDNAKNTVYLQMNSLKPEDTAVYYCAADARVKRYYFRKSGYWGQGTQVTVSS | high polyreactivity
11 | QVQLVESGGGLVQAGGSLRLSCAASGSIFKINAMGCYTPAPGKERELVATITRSTGTTYYADSVKGRFTNSRDTAKNSVYLQMNSLKPEDTAVYYCATDGDSNKLDYWGQGTQVTVSS | low polyreactivity
12 | QVQLVESGGGLVQAGGSLRLSCAASGSIFKIYAMGWSRQAPGKERELVAAISRSVGSTYADSVKGRFTISRDNAKNTVYLQMNSLKPEDTAVYYCNARYKSRLYPRYDYWGQGTQVTVSS | high polyreactivity
13 | QVQLVESGGGLVQAGGSLRLSCAASGSIFKIYAMGWYRQAPGKERELVAAISRRGSSTSYADSVKGRFTISRDNAKNTVYLQMNSLKPEDTAVYYCAARYISNPMDYWGQGTQVTVSS | high polyreactivity
14 | QVQLVESGGGLVQAGGSLRLSCAASGSIFKIYAMGWYRQAPGKERELVASITGSGGSTYYADSVKGRFTISRDNAKNTVYLQMNSLKPEDTAVYYCAADVVRSNFYGTFLYDYDYWGQGTQVTVSS | low polyreactivity
15 | QVQLVESGGGLVQAGGSLRLSCAASGSIFKIYAMGWYRQAPGKERELVASITGSGGSTYYADSVKGRFTISRDNAKNTVYLQMNSLKPEDTAVYYCIADGPLDRYEYWGQGTQVTVSS | low polyreactivity
16 | QVQLVESGGGLVQAGGSLRLSCAASGSIFKKYAMGWYRQAPGKERELVAAITRGTYYADSVKGRFTISRDNAKNTVYLQMNSVKPVDTAVYYCNREYWGRGYYRVRGEYVYWGQGTQVTVSS | low polyreactivity
17 | QVQLVESGGGLVQAGGSLRLSCAASGSIFKPYAMAWYRQAPGKERELVAAINRGGTSTYYADSVKGRFTISRDNAKNTVYLQMNSLKPEDTAVYYCAKTYTEYSVTRSGARMDYWGQGAQVTVSS | low polyreactivity
18 | QVQLVESGGGLVQAGGSLRLSCAASGSIFKPYAMGWYRQAPGKERELVAAINRGGTSTYYADSVKGRFTISRDNAKNTVYFQMNSLKPEDTAVYYCAAPNRYSVPMYYWGQGTQVTVSS | low polyreactivity
19 | QVQLVESGGGLVQAGGSLRLSCAASGSIFKPYAMGWYRQAPGKERELVAAISYSGGSTYYADSVKGRFTISRDNAKNSVYLQMNSLKPEDTAVYYCAKRSTSRGYDYWGQGTQVTVSS | high polyreactivity
20 | QVQLVESGGGLVQAGGSLRLSCAASGSIFKQNDMGWYRHAPGKERELVAAITYTGGSTYYADSVKGRFTISRDNAKNTVYLQMNSLKPEDTAVYYCAARITSPRARSRGFYYWGQGTQVTVSS | high polyreactivity

Row | Sequence | polyreactivity (PSR sort gate)
21 | QVQLVESGGGLVQAGGSLRLSCAASGSIFKQYDMGWYRQAPGKERDLVAAITASDGSTYYADSVKGRFTISRDNAMNTVYLQMNSLKPEDTAVYFCAADGGVAWGYGYCGQGTQVTVSS | low polyreactivity
22 | QVQLVESGGGLVQAGGSLRLSCAASGSIFKQYVMGWYRQAPGKERELVAAISRGGNTYYADSVKGRFTISRDNAKNTVYLQMNSLKPEDTAVYYCAAVYGGRAVPYYSWGQGTQVTVSS | high polyreactivity
23 | QVQLVESGGGLVQAGGSLRLSCAASGSIFKRNAMGWYRQAPGKERELVASISWSGTRTYYADSVKGRFTISRDKAKNTVYFQMNSLKPEDTAVYYCARRIYGGHPCQSTQGDFYYWGQGTQVTVSS | high polyreactivity
24 | QVQLVESGGGLVQAGGSLRLSCAASGSIFKRYAMGWYRQAPGKERELVAAISWSGGNTYYADSVKGRFTISRDNAKNTVYLQMNSLKPEDTAVYYCAALHRVGYSEYGYWGQGTQVTVSS | high polyreactivity
25 | QVQLVESGGGLVQAGGSLRLSCAASGSIFKRYAMGWYRQAPGKERELVAGITSSGGSTYYADSVKGRFTISPDNAKNTVYLQMNSLKPEDTAVYYCAAPYSSYKVRPYDYWGQGTQVTVSS | low polyreactivity
26 | QVQLVESGGGLVQAGGSLRLSCAASGSIFKSYAMGWYRHAPWKERELVASISSRGSSTNYADSVKGRFTISRDNAKITVYLQMNSLKPEDTEGYYCAAEVYRGKYWSTYRGGDYWGQGTQVTVSS | high polyreactivity
27 | QVQLVESGGGLVQAGGSLRLSCAASGSIFKSYAMGWYRQPPGKERELVAAISWSGTSTYYADSVKGRFTISRDNAKNTVYLLMNSLKPEDTAVYYCNAVSVSSKRSDYWGQGTQVTVSS | low polyreactivity
28 | QVQLVESGGGLVQAGGSLRLSCAASGSIFKTNAMGWYRQAPGKERELVAGISNGGSTNYADSVKGRFTISRDNAKNTVYLQMNSLKPEDTAVYYCATDFAVTKMEYWGQGTQVTVSS | low polyreactivity
29 | QVQLVESGGGLVQAGGSLRLSCAASGSIFKTYAMGWYRQAPGKERELVAAISSGGSTYYADSVKGRFTISRDNAKNTVYLELNSLKPEDTAVYYCAADPWGAFVSFASYYYWGQGTQVTVSS | low polyreactivity
30 | QVQLVESGGGLVQAGGSLRLSCAASGSIFKYNAMGWYRQAPGKERELVAAITIGGRTYYADSVKGRFTISRDNAKNTVYLQMNSLKPEDTAVYYCAGVVRALTIKYGYWGQGTQVTVSS | high polyreactivity
31 | QVQLVESGGGLVQAGGSLRLSCAASGSIFKYNAMGWYRQAPGKERELVAAITNGGSTYADSVKGRFTISRDNAKNTVYLQMNSLKPEDTAVYYCNFYGQDGVNVTYDYWGQGTQVTVSS | low polyreactivity
32 | QVQLVESGGGLVQAGGSLRLSCAASGSIFKYNTMGWYRQAPGKERELVAAIRYSGGRTYYADSVKGRFTISRDYAKNTVYLQMNSLKPEDTAVYYCAAGSIQYRPTYTGDYWGQGTQVTVSS | high polyreactivity
33 | QVQLVESGGGLVQAGGSLRLSCAASGSIFKYYAKGWYRQAPGKERELVAAITIGGNTNYADSVKGRFTISRDNAKNTVYLQMNSLKPEDTAVYYCATGGYYSAIVYGGYDYWGQGTQVTVSS | low polyreactivity
34 | QVQLVESGGGLVQAGGSLRLSCAASGSIFKYYAMGSSRQAPGKERELVAAISTGGTTNYADSVKGRFTISRDNAKNTVYLQMNSLKPEDTAVYYCNRDYLVRSRYKYYYWGQGTQVTVSS | low polyreactivity
35 | QVQLVESGGGLVQAGGSLRLSCAASGSIFKYYAMGWYRQAPGKERELVAAISTGGTTNYADYVKGRFTISRDNAKNTVYLQMNSLKPEDTAVYYCNRDYLVRSRYKYYYWGQGTQVTVSS | low polyreactivity
36 | QVQLVESGGGLVQAGGSLRLSCAASGSIFKYYTMGWSRQAPGKERELVAAINSSGGSTYYADSVKGRFTISRYNAKNTVYLQMYSLKPEDTAVYYCIAVTSRRWRYELDYLGQGTQVTVSS | high polyreactivity
37 | QVQLVESGGGLVQAGGSLRLSCAASGSIFKYYTMGWYRQAPGKERELVAAITYTGGRTYYADSVKGRFTISRDNAKNTVYLQMNSPKPEDTAVYYCAKDGPATVRRGYDYWGQGTQVTVSS | high polyreactivity
38 | QVQLVESGGGLVQAGGSLRLSCAASGSIFLAYAMGCYRQATAKEREFVAANSFSDGSTYYADSVKGRFTISRDNAKNTVYLQMNSLKPEDTAVYYCNKGASPDDYDYWGQGTQVTESS | low polyreactivity
39 | QVQLVESGGGLVQAGGSLRLSCAASGSIFLAYDMGWYRQAPGKERELVAGITSGGTTYYADSVKGRFTISRDNAKNTVYLQMNSLKPEDTAVYYCAVEPVFIVSEVLFDYWGQGTQVTVSS | low polyreactivity
40 | QVQLVESGGGLVQAGGSLRLSCAASGSIFLAYLKGWYRQAPGKERELVAAISYRGVSTYYADSVKGRFTISRDNAKNTVYLQMTRLNPEDTAVYYFAAEHLWGAVFLYVRSTGLDYWGQGTQVTVSS | low polyreactivity
